Target: RhoA in NIH3T3 cells (UniProt Q9QUI0)
Assay: cell-based or functional assay

RhoA in NIH3T3 cells, sequence (Q9QUI0 1-190 limits assumed): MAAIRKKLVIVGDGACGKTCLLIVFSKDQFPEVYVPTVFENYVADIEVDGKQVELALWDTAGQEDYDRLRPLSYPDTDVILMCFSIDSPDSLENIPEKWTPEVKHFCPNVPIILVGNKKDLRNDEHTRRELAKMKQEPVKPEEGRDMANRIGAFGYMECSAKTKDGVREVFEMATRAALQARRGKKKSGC

Substance: GFP-Tgat (from UniProt P42212 1-238; O75962 1862-2101) (enzyme)
- RhoA activation in intact cells, pull-down of RhoA-GTP with GST-RBD (fold over control): 8

From patent US20120258099A1
